Results from paper doi:10.1101/449629.

Experiments:
[1] = molecular target: Recombinant hamster MIF (Syrian golden hamster macrophage migration inhibitory factor) (Syrian golden hamster (Mesocricetus auratus)); assay: SEC
[2] = molecular target: Recombinant hamster MIF (Syrian golden hamster macrophage migration inhibitory factor) (Syrian golden hamster (Mesocricetus auratus)); assay: crystal structure

Substance: Recombinant hamster MIF (Syrian golden hamster macrophage migration inhibitory factor) (from UniProt A0A140EDM8 1-115) (natural protein)
- stoichiometry N [1]: 3
- stoichiometry N [2]: 3
